Results from PMC8721105.

Experiments:
[1] = molecular target: GST-TbPEX3d44 (T. brucei); test: AlphaScreen or HTRF
[2] = molecular target: TbPEX19FL-His (T. brucei); test: ELISA
[3] = molecular target: TbPEX19FL-His (T. brucei); test: AlphaScreen or HTRF

| Kd [1] [nM] | Kd [2] [nM] | Kd [3] [nM] | Substance |
| --- | --- | --- | --- |
| 3.7 | – | – | TbPEX19-Strep (natural protein) |
| 9.7 | – | – | tag-free TbPEX19 (natural protein) |
| – | 0.16 | 32.8 | GST-TbPEX3d44 (domain or fragment) |
